Source: patent US20200289575A1 (NSAGE, published 2020)

Biological target: AGE-albumin (advanced glycation end-product albumin), Sigma-Aldrich
Assay: cell-based or functional assay

B1: sRAGE (soluble Receptor for Advanced Glycation End-products), cat. RD172116100, Biovendor (receptor)
chain: MRGSHHHHHHGMASAQNITARIGEPLVLKCKGAPKKPPQRLEWKLNTGRTEAWKVLSPQGGGPWDSVARVLPNGSLFLPAVGIQDEGIFRCQAMNRNGKETKSNYRVRVYQIPGKPEIVDSASELTAGVPNKVGTCVSEGSYPAGTLSWHLDGKPLVPNEKGVSVKEQTRRHPETGLFTLQSELMVTPARGGDPRPTFSCSFSPGLPRHRALRTAPIQPRVWEPVPLEEVQLVVEPEGGAVAPGGTVTLTCEVPAQPSPQIHWMKDGVPLPLPPSPVLILPEIGPQDQGTYSCVATHSSHGPQESRAVSISIIEPGEEGPTAGEGFDKVREAEDSPQHM
  cell viability of HT22 cells by MTT assay (percent relative to control): 101%
